# Paper PMC4938167, “Structural Insights into the Polyphyletic Origins of Glycyl tRNA Synthetases*^([image sbox.jpg])^♦” (The Journal of Biological Chemistry, 2016)
# B1: α-subunit of the α2β2 glycyl tRNA synthetase (GlyRS) from Aquifex aeolicus (enzyme)
# chain: MYFQDIIMTLHKFWAEKGCLIWQPYDVEVGAGTMNPATFLKVLGKKPWNVAYVEPSRRPQDGRYGENPNRLQHYYQFQVILKPAPRNPQEIYLESLERLGINPLEHDIRFVEDDWESPTLGAWGLGWEVWLDGMEITQFTYFQQAGGLDLDEISVEITYGLERIAMYIQDKDSVFDIEWKEGITYGEIFKRSEWEWSKYNFELADTDMLFQVYEMFEKESKRMVEEGLIFPAYDYLLKCSHVFNILDARGAISVQERARYIRRMNNLAREIAKLYLQVFENVGAT
# notes: Glycyl tRNA synthetase α-subunit, Aquifex aeolicus; synthetic cDNA (Genscript), codon-optimised for E. coli, in pET-28; No cleavage of the tag is described; The theoretical mass of the dimer is printed as 67.4 kDa; Crystals were soaked with the glycyl adenylate analog GSAd; also called α-AaGlyRS; α-subunit GlyRS; source: E. coli BL21(DE3), purified (heat treatment 75 °C, Ni2+-Sepharose, size …)
# Experiments:
# α-AaGlyRS = biological target: T1, α-AaGlyRS (Aquifex aeolicus, UniProt O67081); assay: thermal shift assay, SYPRO Orange; format: binding; conditions: 8 mM GSAd; reference Tm without ligand 83.2 °C; 25 mM NaH2PO4, 25 mM KCl, 10 mM MgCl2
# T1 construct: gene glyQ; alpha subunit alone of alpha2beta2 GlyRS; synthetic codon-optimised gene in pET-28, N-terminal His6 (His tag/TEV residues kept), E. coli BL21(DE3)
# purified protein = substrate: NCC(=O)O; assay: purified protein; format: biochemical, Aquifex aeolicus; conditions: 0.5 mM ATP, 10 mM MgCl2, 50 mM Tris pH 8.0, 50 mM KCl, 45 °C, 40 μM enzyme, alpha subunit alone
# [1] = biological target: the molecule itself; assay: SEC-MALS; Superdex S-75 10/300 analytical column, 0.5 ml/min, DAWN Heleos-II and Optilab RI detectors; protein loaded after concentration to 15 mg/ml; one peak with 99.9% of the injected mass
Molecule,Tm with 8 mM ligand (α-AaGlyRS) [°C],Km (purified protein) [µM],kcat (purified protein) [s⁻¹],stoichiometry N [1]
"NCC(=O)NS(=O)(=O)OC[C@H]1O[C@@H](n2cnc3c(N)ncnc32)[C@H](O)[C@@H]1O [GSAd, 5′-O-[N-(L-glycyl)sulfamoyl] adenosine]",92.3,,,
B1,,110 ± 16,0.00023,2
